Assay results: US20260109774A1 (JUNO THERAPEUTICS, published 2026)

Legend:
[1] = target: T1, human B-cell maturation antigen (BCMA) on cells (human, UniProt Q02223 1-184); assay: membrane proteome array on transfected HEK293 cells (Retrogenix)
T1 construct: Recombinant on HEK293 or K562 cells, or endogenous on cell lines (H929, RPMI 8226, OPM2, MM1S, Daudi); also called hBCMA; huBCMA
T1 chain: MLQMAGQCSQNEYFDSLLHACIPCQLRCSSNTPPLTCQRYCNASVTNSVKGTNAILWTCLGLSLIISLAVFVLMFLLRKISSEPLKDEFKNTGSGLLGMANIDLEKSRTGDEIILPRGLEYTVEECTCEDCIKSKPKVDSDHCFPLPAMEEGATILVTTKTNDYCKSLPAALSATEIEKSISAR
Protocol: A membrane proteome array (MPA) assay was used to assess binding specificity of the BCMA-55-derived binding domain, using an scFv-Fc fusion protein. […] An initial screening involved an scFv binding assay for BCMA-55-scFv against the full protein panel. A follow-up confirmation screen was then performed retesting the interaction of BCMA-55-Fc with a subset of potential hits identified in the initial screen.

[2] = target: T2, recombinant human BCMA-hFc (human, UniProt Q02223 1-54, biotinylated in the kinetic exclusion assay of paragraph 546); assay: Biacore-based assay (SPR)
T2 construct: also called rhBCMA hFc; recombinant human BCMA fusion protein
T2 sequence: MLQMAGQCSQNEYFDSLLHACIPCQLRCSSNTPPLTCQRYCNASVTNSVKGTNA

B1: BCMA-55 scFv-Fc fusion protein (Fc fusion, not shown: a dimerising Fc or GST)
chain: QSALTQPASVSASPGQSIAISCTGTSSDVGWYQQHPGKAPKLMIYEDSKRPSGVSNRFSGSKSGNTASLTISGLQAEDEADYYCSSNTRSSTLVFGGGTKLTVLGSRGGGGSGGGGSGGGGSLEMAEVQLVQSGAEMKKPGASLKLSCKASGYTFIDYYVYWMRQAPGQGLESMGWINPNSGGTNYAQKFQGRVTMTRDTSISTAYMELSRLRSDDTAMYYCARSQRDGYMDYWGQGTLVTVSS
notes: also called BCMA-55-Fc
With B1 the binding result [1] was “binds” and the Kd [2] was about 10 nM.
